The source of these data is patent US8242083B2, “Kinase substrates” (PerkinElmer Health Sciences, Inc., priority 2008, dated 2012).

Assay type in all cases: biochemical
Assay [1] has as its target ACK (Homo sapiens, UniProt Q07912). The experiment in a line: TR-FRET kinase assay, ACK. Conditions: Kinase Concentration 20 nM; 50 nM ULight-labeled substrate, 200 micromolar ATP, 2 hours. Here is the method: (§1) TR-FRET kinase assays are performed under standardized conditions: various individual kinases are incubated with 50 nM of kinase substrate BRB1 labeled with the TR-FRET acceptor dye ULight (PerkinElmer) and 200 micromolar ATP in 10 μL of kinase assay buffer (50 mM HEPES pH7.5, 10 mM MgCl2, 3 mM MnCl2, 1 mM EGTA, 2 mM DTT and 0.01% Tween-20) for 2 hours at room temperature. Reactions are stopped with EDTA, and anti-phospho-tyrosine antibodies (clone PT66) labeled with the TR-FRET europium chelate donor dye are added to a final concentration of 2 nM in a final volume of 20 μL. The TR-FRET signal emitted at 665 nm is read one hour after the addition of antibodies using a TR-FRET plate reader such as the Envision® Multilabel Plate reader (PerkinElmer). The emitted signal at 665 nm is proportional to the extent of peptide phosphorylation, Control reactions indicative of background are performed excluding ATP from the reaction.
(§2) Assay conditions are identical to those used described for FIG. 1.
(TR-FRET usually uses a lanthanide donor and a delayed reading to cut background.)

Assay [2] addresses HCK (Homo sapiens, UniProt P08631). The assay is described as follows: TR-FRET kinase assay, HCK. Particulars: Kinase Concentration 0.25 nM; 50 nM ULight-labeled substrate, 200 micromolar ATP, 2 hours. Here is the method:
as §1, §2

Assay [3] concerns the target JAK2 (Homo sapiens, UniProt O60674). The assay is described as follows: TR-FRET kinase assay, JAK2. Conditions: Kinase Concentration 1 nM; 50 nM ULight-labeled substrate, 200 micromolar ATP, 2 hours. Here is the method:
as §1, §2

Assay [4] addresses SRM (Homo sapiens, UniProt Q9H3Y6). The assay is described as follows: TR-FRET kinase assay, SRM. Conditions: Kinase Concentration 0.5 nM; 50 nM ULight-labeled substrate, 200 micromolar ATP, 2 hours. Here is the method:
as §1, §2

In assay [5] the target is T1, ZAP70 (Homo sapiens, UniProt P43403).
T1 sequence (P43403 1-619): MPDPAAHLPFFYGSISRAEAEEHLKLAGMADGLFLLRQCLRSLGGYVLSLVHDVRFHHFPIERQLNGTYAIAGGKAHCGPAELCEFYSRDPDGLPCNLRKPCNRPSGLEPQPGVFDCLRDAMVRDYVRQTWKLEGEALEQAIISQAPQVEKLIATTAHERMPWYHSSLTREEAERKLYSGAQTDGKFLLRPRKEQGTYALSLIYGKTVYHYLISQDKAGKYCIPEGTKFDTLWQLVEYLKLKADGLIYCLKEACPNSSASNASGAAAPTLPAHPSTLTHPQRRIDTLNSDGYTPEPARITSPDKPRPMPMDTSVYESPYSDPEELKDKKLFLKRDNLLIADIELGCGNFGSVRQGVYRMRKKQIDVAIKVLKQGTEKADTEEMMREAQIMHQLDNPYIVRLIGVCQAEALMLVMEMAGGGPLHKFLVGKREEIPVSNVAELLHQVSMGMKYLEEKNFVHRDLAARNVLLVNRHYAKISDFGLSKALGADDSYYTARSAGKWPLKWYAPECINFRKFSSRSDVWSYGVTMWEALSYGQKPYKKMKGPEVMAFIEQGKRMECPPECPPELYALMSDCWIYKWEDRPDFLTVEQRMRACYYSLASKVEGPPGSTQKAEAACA
The experiment in a line: TR-FRET kinase assay, ZAP70. Conditions: Kinase Concentration 4 nM; 50 nM ULight-labeled substrate, 200 micromolar ATP, 2 hours. Here is the method: as §1, §2

Assay [6] addresses ALK (Homo sapiens, UniProt Q9UM73). The assay is described as follows: TR-FRET kinase assay, ALK. Particulars: Kinase Concentration 4 nM; 50 nM ULight-labeled substrate, 200 micromolar ATP, 2 hours. Here is the method:
as §1, §2

Assay [7] addresses AXL (Homo sapiens, UniProt P30530). The assay is described as follows: TR-FRET kinase assay, AXL. Conditions: Kinase Concentration 4 nM; 50 nM ULight-labeled substrate, 200 micromolar ATP, 2 hours. Here is the method: as §1, §2
For assay [8], the target named is DDR1 (Homo sapiens, UniProt Q08345). The experiment in a line: TR-FRET kinase assay, DDR1. Particulars: Kinase Concentration 0.5 nM; 50 nM ULight-labeled substrate, 200 micromolar ATP, 2 hours. Here is the method: as §1, §2
Assay [9] addresses EGFR (Homo sapiens, UniProt P00533). The experiment in a line: TR-FRET kinase assay, EGFR. Particulars: Kinase Concentration 0.5 nM; 50 nM ULight-labeled substrate, 200 micromolar ATP, 2 hours. Here is the method: as §1, §2
Assay [10] has as its target EphA5 (Homo sapiens, UniProt P54756). The experiment in a line: TR-FRET kinase assay, EphA5. Conditions: Kinase Concentration 1 nM; 50 nM ULight-labeled substrate, 200 micromolar ATP, 2 hours. Here is the method:
as §1, §2

Assay [11] has as its target FGFR2 (Homo sapiens, UniProt P21802). The assay is described as follows: TR-FRET kinase assay, FGFR2. Particulars: Kinase Concentration 0.25 nM; 50 nM ULight-labeled substrate, 200 micromolar ATP, 2 hours. Here is the method: as §1, §2
The target of assay [12] is FMS (CSFR) (Homo sapiens, UniProt P07333). The experiment in a line: TR-FRET kinase assay, FMS (CSFR). Particulars: Kinase Concentration 0.25 nM; 50 nM ULight-labeled substrate, 200 micromolar ATP, 2 hours. Here is the method:
as §1, §2

Assay [13] addresses HER2 (Homo sapiens, UniProt P04626). The assay is described as follows: TR-FRET kinase assay, HER2. Particulars: Kinase Concentration 10 nM; 50 nM ULight-labeled substrate, 200 micromolar ATP, 2 hours. Here is the method: as §1, §2
In assay [14] the target is TRKA (NTRK1) (Homo sapiens, UniProt P04629). The experiment in a line: TR-FRET kinase assay, TRKA (NTRK1). Conditions: Kinase Concentration 0.5 nM; 50 nM ULight-labeled substrate, 200 micromolar ATP, 2 hours. Here is the method: as §1, §2
Sequence of TRKA (NTRK1) (P04629 33-796, species assumed): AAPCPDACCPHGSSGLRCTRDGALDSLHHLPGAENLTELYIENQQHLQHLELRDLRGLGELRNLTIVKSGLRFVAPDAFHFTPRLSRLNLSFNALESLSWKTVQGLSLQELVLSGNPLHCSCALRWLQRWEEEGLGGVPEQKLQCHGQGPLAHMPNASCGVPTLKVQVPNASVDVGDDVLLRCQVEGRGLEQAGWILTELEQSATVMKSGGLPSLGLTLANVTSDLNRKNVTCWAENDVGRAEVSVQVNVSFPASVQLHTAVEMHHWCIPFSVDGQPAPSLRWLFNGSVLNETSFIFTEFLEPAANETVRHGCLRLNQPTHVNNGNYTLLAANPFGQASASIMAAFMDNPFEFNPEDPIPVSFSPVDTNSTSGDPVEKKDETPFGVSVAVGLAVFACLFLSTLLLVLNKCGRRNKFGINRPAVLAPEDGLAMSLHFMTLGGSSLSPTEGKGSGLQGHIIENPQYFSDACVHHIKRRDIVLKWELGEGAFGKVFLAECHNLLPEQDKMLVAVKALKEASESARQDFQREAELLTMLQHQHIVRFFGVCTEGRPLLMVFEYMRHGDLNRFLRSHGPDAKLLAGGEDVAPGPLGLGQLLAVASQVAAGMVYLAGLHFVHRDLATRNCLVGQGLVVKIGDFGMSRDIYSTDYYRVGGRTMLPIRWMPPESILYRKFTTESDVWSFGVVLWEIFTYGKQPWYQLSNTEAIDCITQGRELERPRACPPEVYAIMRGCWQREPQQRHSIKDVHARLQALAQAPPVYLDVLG

Sequence of ALK (Q9UM73 19-1620, species assumed): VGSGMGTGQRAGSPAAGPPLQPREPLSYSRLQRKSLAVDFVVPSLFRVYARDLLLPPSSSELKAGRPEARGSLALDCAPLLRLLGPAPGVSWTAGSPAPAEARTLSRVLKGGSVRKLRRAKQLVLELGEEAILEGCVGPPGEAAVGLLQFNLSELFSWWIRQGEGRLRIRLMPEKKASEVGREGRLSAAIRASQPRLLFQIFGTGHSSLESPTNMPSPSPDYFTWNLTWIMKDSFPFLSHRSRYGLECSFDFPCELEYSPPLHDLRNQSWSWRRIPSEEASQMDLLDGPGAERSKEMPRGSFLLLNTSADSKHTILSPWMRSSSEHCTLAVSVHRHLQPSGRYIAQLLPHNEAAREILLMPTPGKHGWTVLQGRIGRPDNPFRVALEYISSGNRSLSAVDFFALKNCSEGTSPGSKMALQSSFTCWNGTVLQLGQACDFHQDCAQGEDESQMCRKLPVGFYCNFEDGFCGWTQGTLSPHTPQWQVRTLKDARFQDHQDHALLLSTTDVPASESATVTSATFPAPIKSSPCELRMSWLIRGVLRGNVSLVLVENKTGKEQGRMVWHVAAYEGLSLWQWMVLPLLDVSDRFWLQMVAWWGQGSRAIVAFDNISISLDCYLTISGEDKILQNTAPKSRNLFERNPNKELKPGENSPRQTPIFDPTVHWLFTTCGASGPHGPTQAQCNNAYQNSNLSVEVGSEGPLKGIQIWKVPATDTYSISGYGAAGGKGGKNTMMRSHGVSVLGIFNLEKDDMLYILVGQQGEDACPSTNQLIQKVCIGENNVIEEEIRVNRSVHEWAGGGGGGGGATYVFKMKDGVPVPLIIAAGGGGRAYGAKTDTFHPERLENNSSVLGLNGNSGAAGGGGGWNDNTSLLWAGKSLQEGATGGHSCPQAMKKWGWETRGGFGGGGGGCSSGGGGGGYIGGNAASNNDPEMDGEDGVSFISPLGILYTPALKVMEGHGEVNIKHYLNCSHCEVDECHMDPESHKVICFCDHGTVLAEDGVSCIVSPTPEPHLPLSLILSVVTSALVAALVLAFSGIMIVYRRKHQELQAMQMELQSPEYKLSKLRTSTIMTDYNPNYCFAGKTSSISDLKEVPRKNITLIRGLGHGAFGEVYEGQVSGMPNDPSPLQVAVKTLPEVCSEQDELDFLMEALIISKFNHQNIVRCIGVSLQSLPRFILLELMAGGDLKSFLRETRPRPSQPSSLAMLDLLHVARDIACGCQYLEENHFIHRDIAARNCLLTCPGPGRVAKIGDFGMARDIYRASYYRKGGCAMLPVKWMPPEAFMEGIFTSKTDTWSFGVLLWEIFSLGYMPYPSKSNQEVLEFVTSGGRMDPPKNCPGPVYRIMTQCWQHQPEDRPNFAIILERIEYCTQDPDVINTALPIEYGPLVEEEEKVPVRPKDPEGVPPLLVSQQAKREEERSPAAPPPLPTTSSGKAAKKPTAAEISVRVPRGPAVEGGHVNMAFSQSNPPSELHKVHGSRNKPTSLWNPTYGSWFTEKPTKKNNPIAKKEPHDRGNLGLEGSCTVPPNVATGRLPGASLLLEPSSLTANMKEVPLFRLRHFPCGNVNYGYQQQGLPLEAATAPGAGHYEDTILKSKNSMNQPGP
Sequence of HCK (P08631 whole entry, species assumed): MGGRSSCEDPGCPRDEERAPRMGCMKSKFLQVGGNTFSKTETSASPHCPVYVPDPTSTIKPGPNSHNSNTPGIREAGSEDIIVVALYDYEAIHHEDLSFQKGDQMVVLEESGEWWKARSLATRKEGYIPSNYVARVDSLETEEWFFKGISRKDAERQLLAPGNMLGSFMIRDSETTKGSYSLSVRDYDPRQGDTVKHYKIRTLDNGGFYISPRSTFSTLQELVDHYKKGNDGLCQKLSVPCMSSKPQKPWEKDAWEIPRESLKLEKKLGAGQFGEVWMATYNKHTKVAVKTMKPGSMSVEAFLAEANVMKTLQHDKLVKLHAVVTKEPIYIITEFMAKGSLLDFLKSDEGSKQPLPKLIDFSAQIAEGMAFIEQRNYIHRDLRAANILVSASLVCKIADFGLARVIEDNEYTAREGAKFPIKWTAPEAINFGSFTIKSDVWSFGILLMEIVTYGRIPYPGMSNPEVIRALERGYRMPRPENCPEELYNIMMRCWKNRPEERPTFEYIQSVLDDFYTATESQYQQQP
Sequence of JAK2 (O60674 whole entry, species assumed): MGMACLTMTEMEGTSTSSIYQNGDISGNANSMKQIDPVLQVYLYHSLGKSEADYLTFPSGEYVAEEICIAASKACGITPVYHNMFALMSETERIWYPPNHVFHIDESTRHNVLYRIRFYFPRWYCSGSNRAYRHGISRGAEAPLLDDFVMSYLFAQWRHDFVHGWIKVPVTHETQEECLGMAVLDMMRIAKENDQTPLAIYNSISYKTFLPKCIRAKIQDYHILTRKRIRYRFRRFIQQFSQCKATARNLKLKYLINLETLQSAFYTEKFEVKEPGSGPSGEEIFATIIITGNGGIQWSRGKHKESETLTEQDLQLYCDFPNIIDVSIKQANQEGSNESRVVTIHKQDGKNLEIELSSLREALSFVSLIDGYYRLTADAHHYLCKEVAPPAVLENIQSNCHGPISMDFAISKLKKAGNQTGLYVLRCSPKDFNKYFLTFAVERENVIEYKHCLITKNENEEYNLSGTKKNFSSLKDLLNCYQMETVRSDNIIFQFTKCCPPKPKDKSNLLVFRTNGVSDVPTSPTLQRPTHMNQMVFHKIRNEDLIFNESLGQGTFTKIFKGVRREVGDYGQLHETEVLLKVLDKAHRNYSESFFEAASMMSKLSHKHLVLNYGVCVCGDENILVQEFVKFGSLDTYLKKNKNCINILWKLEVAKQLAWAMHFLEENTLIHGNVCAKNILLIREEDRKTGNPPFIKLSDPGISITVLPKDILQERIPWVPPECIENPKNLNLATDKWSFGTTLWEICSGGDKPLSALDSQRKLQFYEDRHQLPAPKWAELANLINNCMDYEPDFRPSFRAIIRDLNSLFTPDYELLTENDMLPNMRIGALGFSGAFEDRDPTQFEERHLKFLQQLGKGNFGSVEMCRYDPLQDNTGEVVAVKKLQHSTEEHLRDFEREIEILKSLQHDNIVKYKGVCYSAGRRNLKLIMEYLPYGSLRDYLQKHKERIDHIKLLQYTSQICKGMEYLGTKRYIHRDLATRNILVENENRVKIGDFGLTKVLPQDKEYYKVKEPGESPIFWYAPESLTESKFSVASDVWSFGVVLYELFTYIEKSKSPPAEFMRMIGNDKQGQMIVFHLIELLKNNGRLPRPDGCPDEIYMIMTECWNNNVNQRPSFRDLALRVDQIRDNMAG
Sequence of ACK (Q07912 whole entry): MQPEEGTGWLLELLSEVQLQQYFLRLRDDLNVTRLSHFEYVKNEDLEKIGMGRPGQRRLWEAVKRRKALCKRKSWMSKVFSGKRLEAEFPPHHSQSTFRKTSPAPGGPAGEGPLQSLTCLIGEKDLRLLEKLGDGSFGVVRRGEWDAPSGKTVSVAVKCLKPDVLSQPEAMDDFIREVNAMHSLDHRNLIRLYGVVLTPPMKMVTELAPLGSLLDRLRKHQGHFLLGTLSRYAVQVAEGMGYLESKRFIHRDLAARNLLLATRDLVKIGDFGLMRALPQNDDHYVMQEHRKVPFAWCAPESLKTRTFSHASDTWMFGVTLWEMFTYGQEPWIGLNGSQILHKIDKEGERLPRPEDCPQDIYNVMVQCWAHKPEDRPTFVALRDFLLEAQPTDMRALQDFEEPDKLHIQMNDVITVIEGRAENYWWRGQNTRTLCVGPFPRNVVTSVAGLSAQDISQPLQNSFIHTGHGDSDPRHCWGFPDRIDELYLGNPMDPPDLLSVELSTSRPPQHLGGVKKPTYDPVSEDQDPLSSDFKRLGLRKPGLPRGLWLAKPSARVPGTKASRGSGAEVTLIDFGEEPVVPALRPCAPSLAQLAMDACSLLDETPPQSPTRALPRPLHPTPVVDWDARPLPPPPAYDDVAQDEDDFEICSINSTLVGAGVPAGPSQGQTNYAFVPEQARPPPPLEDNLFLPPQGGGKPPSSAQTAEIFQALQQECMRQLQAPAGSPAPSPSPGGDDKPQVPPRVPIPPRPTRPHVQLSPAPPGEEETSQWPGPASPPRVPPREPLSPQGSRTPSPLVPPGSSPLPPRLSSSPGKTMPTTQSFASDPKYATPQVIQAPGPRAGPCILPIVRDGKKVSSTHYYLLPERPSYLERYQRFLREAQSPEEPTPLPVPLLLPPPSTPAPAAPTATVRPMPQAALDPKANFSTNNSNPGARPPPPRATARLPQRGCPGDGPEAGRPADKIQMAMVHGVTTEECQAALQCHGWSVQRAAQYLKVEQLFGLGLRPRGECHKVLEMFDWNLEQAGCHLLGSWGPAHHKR

For the sequence “C AYE AYE AYE K EYA EYA EYA K AYA EYE R (CAYEAYEAYEKEYAEYAEYAKAYAEYER; tyrosine kinase substrate peptide) [BRB1]”, the “Signal to Noise ratio with BRB1 Peptide” value in [1] was found to be 17.3; in assay [2], 29.7; in assay [3], 35.5; in assay [4], 32.5; in [5], 7.6; in assay [6], 8.8. Further, the “Signal to Noise ratio with BRB1 Peptide” value worked out at 1.8 in assay [7]; 1.0 in [8]; 10.0 in assay [9]; 35.5 in assay [10]; 27.1 in assay [11]; 3.0 in [12]. Besides, the “Signal to Noise ratio with BRB1 Peptide” value in assay [13] was determined as 1.4; in assay [14] it was 23.2.
